Results on one substance are retold here after patent publication US20100330100A1.

Where two headings read alike, the source gives them in different places.

Common to all, as to test: whole cell ELISA on immobilized PA103 strain, 50 µg/well IgG
Assay [1] has as its target PA4710 protein on the cell surface of Pseudomonas aeruginosa PA103 strain (Pseudomonas aeruginosa).
For assay [2] the target is unchanged. This is another data set of the same source.
Assay [3] has the same target. This is another data set of the same source.

Regarding “negative control IgG fraction purified from control rat sera obtained by administering only adjuvant (antibody)”, the absorbance at 450 nm in assay [1] is 0.092 absorbance; in assay [2] it was 0.244 absorbance; in assay [3], 0.28 absorbance.
